Measurements from patent publication US20240294931A1 (VIB VZW, published 2024).

Experiments:
[1] = molecular target: T1, Arabidopsis thaliana PHYTOCHROME A SIGNAL TRANSDUCTION1 (Arabidopsis thaliana, UniProt Q9LDL7 1-490); test: yeast two-hybrid
T1 construct: 490 aa; Y2H fusion domains not described; also called PAT1; At5g48150
T1 sequence: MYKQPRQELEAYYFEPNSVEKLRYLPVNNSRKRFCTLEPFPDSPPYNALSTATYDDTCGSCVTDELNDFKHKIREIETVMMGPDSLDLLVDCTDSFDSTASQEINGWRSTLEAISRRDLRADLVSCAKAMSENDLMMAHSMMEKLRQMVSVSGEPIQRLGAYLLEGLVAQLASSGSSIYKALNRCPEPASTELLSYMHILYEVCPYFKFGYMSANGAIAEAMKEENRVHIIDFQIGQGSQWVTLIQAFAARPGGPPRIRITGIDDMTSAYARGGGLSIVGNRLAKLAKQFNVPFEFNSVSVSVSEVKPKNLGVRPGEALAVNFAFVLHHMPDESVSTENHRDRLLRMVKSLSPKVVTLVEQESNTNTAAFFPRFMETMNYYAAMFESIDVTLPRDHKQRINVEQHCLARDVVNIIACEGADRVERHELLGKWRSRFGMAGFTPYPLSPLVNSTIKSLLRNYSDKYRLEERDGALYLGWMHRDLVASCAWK

[2] = molecular target: T2, Arabidopsis thaliana SCARECROW-LIKE 21 (Arabidopsis thaliana, UniProt Q9S7H5 1-413); test: yeast two-hybrid with ERF115 fragments
T2 construct: Y2H fusion domains not described; Also the endogenous protein co-purifying in the ERF115 TAP; also called SCL21; AT2G04890
T2 sequence: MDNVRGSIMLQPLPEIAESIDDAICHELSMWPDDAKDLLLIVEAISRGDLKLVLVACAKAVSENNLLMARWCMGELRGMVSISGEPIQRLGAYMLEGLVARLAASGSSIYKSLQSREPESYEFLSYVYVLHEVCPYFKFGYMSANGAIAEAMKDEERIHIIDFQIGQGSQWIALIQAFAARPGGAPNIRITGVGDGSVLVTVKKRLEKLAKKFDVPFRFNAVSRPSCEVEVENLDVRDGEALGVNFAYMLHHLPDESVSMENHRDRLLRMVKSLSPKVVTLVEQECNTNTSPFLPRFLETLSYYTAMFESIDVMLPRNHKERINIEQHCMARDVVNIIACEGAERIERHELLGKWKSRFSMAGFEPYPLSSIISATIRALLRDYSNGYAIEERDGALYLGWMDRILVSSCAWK
Method: FIGS. 1A-1L. ERF115 interacts with SCL21 and PAT1. FIG. 1A, Protein interactions identified through TAP using ERF115 and SCL21 as bait. Arrowheads point towards co-purifying proteins. FIG. 1B, Yeast two-hybrid interaction of ERF115 full length and fragments with SCL21 and PAT1. Growth was verified on control medium (+HIS) or selective medium (−HIS) supplemented with 15 mM 3-Amino-1,2,4-triazole (3-AT), using β-glucuronidase (GUS) as a negative control. FIG. 1C, Yeast two-hybrid interaction of ERF2 and ERF6 without (−) or fused to the conserved ERF115 interaction motif (+) with SCL21. The assay was performed similar to (FIG. 1B). […], Root tips expressing ERF115 (dots) (FIGS. 1D and 1E), SCL21 (no expression visible) (FIGS. 1F and 1G), and PAT1 (dots) (FIGS. 1H And 1I) under control conditions (FIGS. 1D, 1F, and 1H) or treated with bleomycin (FIGS. 1E, 1G, and 1I). Arrowheads indicate the quiescent center (QC). Cell walls are counterstained with propidium iodide (PI). Bars=50 μm. FIGS. 1J-1L, Expression of PAT1 (green) and ERF115 (red) in root tips 10 h15 to 11 h30 after recovery from bleomycin treatment. […] Cell walls are counterstained (white) by SCRI Renaissance 2200 dye. Bars=25 μm.

B1: Arabidopsis thaliana ERF115 A-fragment (N-terminal sequence that precedes the APETALA2 domain) (other)
chain: MANSGNYGKRPFRGDESDEKKEADDDENIFPFFSARSQYDMRAMVSALTQVIGNQSSSHDNNQHQPVVYNQQDPNPPAPPTQDQGLLRK
notes: Y2H fusion domains not described
binding result [1]: binds
binding result [2]: binds
